Assay results reported in the Human Domainome abundance scans (Beltran et al. 2025).

B1: 1-phosphatidylinositol 4,5-bisphosphate phosphodiesterase gamma-2, residues 772 to 827; numbered along this chain, P16885 (parent)
chain: RTVKALYDYKAKRSDELSFCRGALIHNVSKEPGGWWKGDYGTRIQQYFPSNYVEDI
B2: E3 ubiquitin-protein ligase NEDD4-like, residues 539 to 589; numbered along this chain, Q96PU5 (parent)
chain: KTSLNPNDLGPLPPGWEERIHLDGRTFYIDHNSKITQWEDPRLQNPAITGP

Variants of: B1
Assay: abundance fitness (aPCA) (normalised: wild type 0, dead -1); higher = more abundant; growth selection in yeast, the domain comes from the species named
Settings: Homo sapiens

Abundance fitness: each site, then its substitutions
D55: P -0.022 | Q -0.281 | Y -0.287 | M 0.086 | N -0.033 | L -0.448 | S -0.216 | V -0.238

Variants of: B2
Assay: as above
Settings: Homo sapiens

Abundance fitness of substitutions, site by site:
D8: Q -0.189 | R -0.034 | P -0.218 | A -0.138 | L -0.304 | K -0.022 | N 0.013 | F -0.321 | W -0.466 | S -0.147 | M -0.307 | H -0.194 | C 0.033 | I -0.189
L9: F -0.271 | S -0.237 | V -0.347
P6: H -0.237 | E 0.057 | I 0.077 | W -0.176 | R 0.015 | N 0.374 | K 0.146 | G 0.027 | D 0.159 | Y -0.105 | F -0.123 | T 0.144 | Q -0.199 | S 0.156 | M 0.112
N7: M -0.02 | A -0.01 | V -0.114 | P -0.05 | Q -0.137 | Y -0.395 | I -0.169 | R -0.041 | K -0.063 | F -0.11 | E 0.001 | T -0.007 | D 0.044 | H -0.146 | L -0.212 | G 0.005 | S -0.042 | W -0.4
T2: Q -0.024 | Y -0.001 | W -0.699 | C -0.181 | S -0.023 | R -0.365 | K -0.066 | D 0.142 | P -0.341 | E -0.1 | N 0.374 | F 0.31 | I 0.067 | H -0.385 | A -0.223 | L -0.158 | V -0.344 | G -0.308
H21: A 0.102
G10: T -0.15 | L -0.429 | N 0.139 | R -0.263 | I -0.508 | H -0.53 | M -0.485 | Y -0.571 | C -0.28 | V -0.181 | Q -0.276 | P -0.347 | K -0.238 | S -0.268 | A -0.076 | W -0.433 | D -0.24
P11: M -0.232 | F -0.426 | Y -0.601 | D -0.025 | T -0.127 | I -0.322 | L -0.41 | V -0.221 | E -0.044 | G -0.19 | C -0.178 | N -0.177 | A 0.022 | H -0.586 | R -0.168 | W -0.613
L4: W -0.283 | Q -0.024 | R -0.241 | G -0.12 | A -0.205 | T -0.303 | S -0.07 | Y -0.105 | V -0.139 | N -0.295 | D -0.108 | C -0.252 | E -0.143 | H -0.242 | K 0.116 | I -0.136 | P -0.281 | F -0.003
K1: A -0.774 | G -1.01 | W -1.08 | S -0.19 | V -0.885 | E -0.473 | R -0.12 | D -0.201 | T -0.328 | L -0.313 | H -0.704 | I -0.062 | N -0.041
R19: L -0.354 | S -0.132 | A -0.283 | H -0.423 | G -0.175 | I -0.181 | E -0.192 | N -0.368 | P -0.969 | Q -0.361 | T -0.342 | F -0.28 | V -0.155 | Y -0.216 | M -0.233 | C -0.138 | D -0.421 | K -0.198
P13: L -0.745 | I -0.933 | H -1.04 | E -0.506 | Q -0.585 | S -0.605 | N -0.437 | D -0.322 | M -0.799 | T -1 | F -0.616 | Y -0.023 | K -0.559 | R -0.698 | A -0.495 | C -0.766 | V -1.1
P14: M -0.256 | N -0.355 | L -0.204 | A 0.008 | Y -0.066 | S -0.042 | I -0.227 | E 0.009 | R -0.085 | C -0.1 | G -0.205 | W -0.433 | K -0.044 | F -0.066 | D 0.023 | Q -0.17 | T -0.118 | H -0.159 | V -0.122
S3: E -0.363 | L -0.345 | N 0.093 | C -0.339 | H -0.223 | K -0.264 | A -0.412 | G -0.353 | M -0.193 | T -0.175 | W -0.86 | Y -0.046 | R -0.338 | D -0.085 | P -0.308 | V -0.353 | I -0.162 | Q -0.427
L12: V -0.568 | N -0.534 | Y -0.788 | F -0.088 | H -0.863 | E -0.563 | G -1.2 | T -0.427 | R -0.864 | A -0.627 | S -0.695 | M -0.121 | Q -0.773 | W -0.72 | C -0.824 | P -0.62 | D -0.736 | I -0.488
W16: S -0.471 | N -0.222 | P -0.385 | G -0.223 | Q -0.388 | L -0.509 | A -0.342 | M -0.46 | H -0.386 | T -0.565 | D -0.353 | E -0.393 | C -0.502 | K -0.29 | R -0.408 | Y -0.41 | I -0.684
G15: A -0.361 | I -0.429 | N -0.018 | K -0.447 | M -0.406 | P -0.471 | F -0.491 | C -0.442 | L -0.622 | R -0.498 | D -0.471 | Q -0.321 | Y -0.53 | E -0.425 | T -0.526 | S -0.394 | H -0.407
E18: A -0.071 | P -0.48 | R -0.159 | G -0.503 | T -0.27 | I -0.796 | K -0.274 | Q 0 | V -0.322 | H -0.68 | L -0.802 | W -0.962 | M -0.444 | Y -0.417 | F -0.736 | C -0.252
N5: I -0.256 | G -0.175 | Y -0.259 | A -0.167 | P -0.487 | K -0.247 | V -0.075 | L -0.212 | C -0.04 | F -0.135 | Q -0.267 | H 0.008 | T -0.203 | W -0.538 | S -0.123 | E 0.019 | M 0.01 | R -0.293 | D -0.407
I20: R -0.006 | C 0.192 | H -0.125 | L -0.024 | E 0.022 | A -0.069 | Y -0.164 | S 0.047 | M -0.131 | N -0.467 | V 0.093 | G -0.289 | F -0.246 | W -0.228 | Q -0.148 | K 0.209 | P -0.226
E17: C -0.457 | P -0.877 | I -0.432 | S -0.246 | R -0.746 | K -0.571 | F -0.753 | M -0.821 | L -0.856 | T -0.628 | A -0.705 | V -0.477 | D -0.606 | N -0.61 | Y -0.986 | H -0.157 | Q -0.361
